Assay results published in patent publication US20120171123A1, “USES AND COMPOSITIONS FOR TREATMENT OF RHEUMATOID ARTHRITIS” (priority 2006, published 2012).
Like-named read-outs stand apart in the source and are kept apart here.

How the values were obtained:
[1] = tested on: MTX-naïve adult patients with early RA (<3 years); test: Study J: HAQ DI; format: in vivo, human; details: for HAQ DI mean change from baseline: LOCF
Text: (§1) The Health Assessment Questionnaire Disability Index (HAQ DI) is a disease-specific tool that measures patient-reported physical function in 8 categories corresponding to normal activities in daily living. Fatigue is an important yet still often overlooked systemic symptom of RA. The Functional Assessment of Chronic Illness Therapy-Fatigue (FACIT-F) tool, measured by a 13-item, validated scale, assesses the impact of a disease and its therapy on fatigue.
(§2) Study J is described in detail in the above examples. The Health Assessment Questionnaire Disability Index (HAQ DI) and Functional Assessment of Chronic Illness Therapy-Fatigue (FACIT-F) were assessed at baseline, and following 12, 26, 42, 52, 76, and 104 weeks of therapy. Changes in scores were computed by subtracting the baseline from post-treatment score for each patient; mean changes were reported for each treatment group. The HAQ DI is assessed on a scale of 0-3, with higher numbers indicating greater disability. The minimum clinically important difference (MCID) is defined as changes ≧0.22 (Goldsmith C H, et al. J Rheumatol 1993; 20-561-5). The FACIT-F is assessed on a scale of 0-52, with higher scores indicating less fatigue. Changes of ≧4 are considered clinically meaningful (Cella D, et al. J Pain Symptom Manage 2002:24:547-61).

[2] = tested on: MTX-naïve adult patients with early RA (<3 years); test: Study J: FACIT-F fatigue; format: in vivo, human; details: for FACIT-F mean change from baseline: LOCF
Text: as §1, §2

[3] = tested on: patients with long-standing RA
[4] = tested on: patients with long-standing RA who had inadequate responses to MTX; test: Study 1: tender and swollen joint counts; format: in vivo, human
Description: Two readers assessed X-rays performed at baseline (start of RCT), 1 year (end of RCT), and 3 years (post 2 years OLE). Changes from baseline in Total Sharp Score (TSS), Joint Erosions (JE), and Joint Space Narrowing (JSN) were calculated. ACR 20, 50, and 70 response rates, as well as TJC and SJC, were also measured.

[5] = tested on: patients with RA who had failed prior treatment with infliximab; test: Adalimumab after failed infliximab: ACR20/ACR50 and moderate EULAR response; format: in vivo, human; details: 16 wk
Text: Patients eligible to participate in the study included those with long-standing, moderate to severe RA who had terminated infliximab therapy because of lack or loss of efficacy and/or intolerance/side effects. […] Follow-up visits for safety and efficacy monitoring were scheduled at 2, 8, and 16 weeks. […] Efficacy parameters included TJC28 and SJC28; DAS28; ACR20, ACR50 Response; Moderate EULAR response; and HAQ. Subgroup analysis by reason for discontinuation included: • in case of discontinuation due to lack or loss of efficacy, patients were counted in the corresponding group regardless of additional cause of intolerance. • The subgroup “Discontinuation due to intolerance” was exclusive.

[6] = tested on: patients with long-standing RA; test: Study 4: CRP; format: in vivo, human
Text: Percentage change of mean clinical improvement from baseline us describe in Table 15 below.

[7] = tested on: patients with early vs. long-standing RA; test: Safety of adalimumab in global clinical trials, early vs long-standing RA (serious adverse event rates, demyelinating disease, lymphoma)
Description: Study J was a 2-year randomized controlled trial in patients with early RA (disease duration<3 years). Participants in these clinical trials and in other phase Mb studies, were routinely evaluated for safety. Reports of serious adverse events (SAE) were tabulated using MedDRA coding by events per 100-patient-years (E/100PY). SAE rates were compared with respect to disease duration between patients with early (<3 yrs) and long-standing RA.

[8] = all reasons for infliximab withdrawal (N=37)
[9] = loss of response to infliximab (N=19)
[10] = no response to infliximab (N=13)
[11] = All Trials adalimumab (4870 PY), data for registration
[12] = Combined (long-standing + early RA)
[13] = Early RA, Study J (N=542; 917 PY)
[14] = Early RA, Study J, N (Exposure) 542 (917)
[15] = Long-standing RA, 31-Aug.-2004 (N=10,050; 12,066 PY)
[16] = Long-standing RA, 31-Aug.-2004, N (Exposure) 10,050 (12,066)

CN(Cc1cnc2nc(N)nc(N)c2n1)c1ccc(C(=O)N[C@@H](CCC(=O)O)C(=O)O)cc1 [mtx alone, methotrexate]
HAQ DI mean score ([1]; Baseline): 1.48 | HAQ DI mean change from baseline ([1]; ΔWeek 12): −0.53 | HAQ DI mean change from baseline ([1]; ΔWeek 26): −0.67 | HAQ DI mean change from baseline ([1]; ΔWeek 42): −0.68 | HAQ DI mean change from baseline ([1]; ΔWeek 52): −0.69 | HAQ DI mean change from baseline ([1]; ΔWeek 76): −0.68 | HAQ DI mean change from baseline ([1]; ΔWeek 104): −0.68 | FACIT-F mean score ([2]; Baseline): 29.0 | FACIT-F mean change from baseline ([2]; ΔWeek 12): 7.8 | FACIT-F mean change from baseline ([2]; ΔWeek 26): 9.5 | FACIT-F mean change from baseline ([2]; ΔWeek 42): 9.3 | FACIT-F mean change from baseline ([2]; ΔWeek 52): 9.0 | FACIT-F mean change from baseline ([2]; ΔWeek 76): 8.5 | FACIT-F mean change from baseline ([2]; ΔWeek 104): 8.8

adalimumab: human anti-TNF mAb (HUMIRA, Abbott Laboratories), described in U.S. Pat. No. 6,090,382 as D2E7
Demyelinating disease ([3]; all exposure): 0.04 E/100-PY | Lymphoma ([3]; all exposure): 0.16 E/100-PY | Pancytopenia ([3]; all exposure): 0.00 E/100-PY | Pneumonia ([3]; all exposure): 0.6 E/100-PY | Septic arthritis ([3]; all exposure): 0.12 E/100-PY | Tuberculosis ([3]; all exposure): 0.04 E/100-PY | Urinary tract infections ([3]; all exposure): 0.28 E/100-PY | Serious infections ([3]; all exposure, 2485 patient-years): 2.62 E/100-PY | Demyelinating disease ([3]; pivotal trials): 0.13 E/100-PY | Lymphoma ([3]; pivotal trials): 0.25 E/100-PY | Pancytopenia ([3]; pivotal trials): 0.25 E/100-PY | Pneumonia ([3]; pivotal trials): 1.13 E/100-PY | Septic arthritis ([3]; pivotal trials): 0.38 E/100-PY | Tuberculosis ([3]; pivotal trials): 0.13 E/100-PY | Urinary tract infections ([3]; pivotal trials): 0.5 E/100-PY | Serious infections ([3]; pivotal trials, 793 patient-years): 4.16 E/100-PY | TJC or SJC ([4]; 36 months): 5-7 | patients with 0 swollen joints ([4]; last visit): 22% | patients with 0 tender joints ([4]; last visit): 21% | ACR20 [5, 8]: 49% | ACR50 [5, 8]: 26% | Moderate EULAR response [5, 8]: 65% | ACR20 ([5]; infliximab intolerance (N=5)): 40% | ACR50 ([5]; infliximab intolerance (N=5)): 20% | Moderate EULAR response ([5]; infliximab intolerance (N=5)): 80% | ACR20 [5, 9]: 61% | ACR50 [5, 9]: 39% | Moderate EULAR response [5, 9]: 74% | ACR20 [5, 10]: 33% | ACR50 [5, 10]: 8% | Moderate EULAR response [5, 10]: 46% | CRP, % change of mean clinical improvement from baseline ([6]; 6 months): 14% | CRP, % change of mean clinical improvement from baseline ([6]; 12 months): 33% | CRP, % change of mean clinical improvement from baseline ([6]; 24 months): 29% | CRP, % change of mean clinical improvement from baseline ([6]; 36 months): 28% | CRP, % change of mean clinical improvement from baseline ([6]; 48 months): 37% | Malignancies [7, 11]: 0.006 N/PY | Pneumonia [7, 11]: 0.008 N/PY | TB [7, 11]: 0.003 N/PY | Total lymphomas, Expected [7, 12]: 5.16 cases | Total lymphomas, Observed [7, 12]: 15 cases | Total lymphomas, SIR [7, 12]: 2.91 | Total lymphomas, Expected ([7]; Early RA): 0.37 cases | Total lymphomas, Observed ([7]; Early RA): 0 cases | Total lymphomas, SIR ([7]; Early RA): 0 | cases of lymphoma ([7]; Early RA): No cases | Congestive Heart Failure rate [7, 13]: 0.11 E/100PY | Demyelinating Diseases rate [7, 13]: 0.00 E/100PY | Lymphoma rate [7, 13]: 0.00 E/100PY | Pancytopenia rate [7, 13]: 0.00 E/100PY | Pneumonia (serious) rate [7, 13]: 0.55 E/100PY | SLE/Lupus-like Syndrome rate [7, 13]: 0.00 E/100PY | Septic Arthritis rate [7, 13]: 0.22 E/100PY | Serious Infections rate [7, 13]: 1.85 E/100PY | Tuberculosis rate [7, 13]: 0.11 E/100PY | Urinary Tract Infections (serious) rate [7, 13]: 0.11 E/100PY | Cases of Guillain-Barre syndrome [7, 14]: 0 cases | Cases of Multiple sclerosis [7, 14]: 0 cases | Cases of Non-specific demyelination [7, 14]: 0 cases | Hodgkin's, Expected ([7]; Long-standing RA): 0.36 cases | Hodgkin's, Observed ([7]; Long-standing RA): 1 cases | Hodgkin's, SIR ([7]; Long-standing RA): 2.78 | NHL, Expected ([7]; Long-standing RA): 4.32 cases | NHL, Observed ([7]; Long-standing RA): 14 cases | NHL, SIR ([7]; Long-standing RA): 3.24 | Total lymphomas, Expected ([7]; Long-standing RA): 4.68 cases | Total lymphomas, Observed ([7]; Long-standing RA): 15 cases | Total lymphomas, SIR ([7]; Long-standing RA): 3.21 | Congestive Heart Failure rate [7, 15]: 0.26 E/100PY | Demyelinating Diseases rate [7, 15]: 0.07 E/100PY | Lymphoma rate [7, 15]: 0.11 E/100PY | Pancytopenia rate [7, 15]: 0.02 E/100PY | Pneumonia (serious) rate [7, 15]: 0.87 E/100PY | SLE/Lupus-like Syndrome rate [7, 15]: 0.06 E/100PY | Septic Arthritis rate [7, 15]: 0.46 E/100PY | Serious Infections rate [7, 15]: 4.79 E/100PY | Tuberculosis rate [7, 15]: 0.24 E/100PY | Urinary Tract Infections (serious) rate [7, 15]: 0.38 E/100PY | Cases of Guillain-Barre syndrome [7, 16]: 2 cases | Cases of Multiple sclerosis [7, 16]: 4 cases | Cases of Non-specific demyelination [7, 16]: 2 cases | lymphoma combined SIR ([7]; all RA patients in adalimumab clinical trials, 95% CI 1.63-4.80): 2.91 | cases of demyelinating diseases ([7]; early RA (Study J)): No cases | cases of demyelinating diseases ([7]; long-standing RA, through Aug. 31, 2004): Eight | cases of lymphoma ([7]; long-standing RA, through August 2004): Fifteen
